Data: PMC4153296, “Mutant Taq DNA polymerases with improved elongation ability as a useful reagent for genetic engineering”

Assays:
[1] = molecular target: chimeric Taq 7-2 (Thermus aquaticus / environmental DNA chimera) (UniProt P19821); test: EMSA; settings: EMSA: 3 nM DNA, 20 mM Tris-HCl pH 8.8, 10 mM NaCl, 5 mM MgCl2, 14 mM 2-mercaptoethanol, 0.1 mg/ml BSA, 5% glycerol, 40 C, 5 min; 1% agarose gel
[2] = molecular target: chimeric Taq 7-3 (Thermus aquaticus / environmental DNA chimera) (UniProt P19821); test: EMSA; settings: EMSA: 3 nM DNA, 20 mM Tris-HCl pH 8.8, 10 mM NaCl, 5 mM MgCl2, 14 mM 2-mercaptoethanol, 0.1 mg/ml BSA, 5% glycerol, 40 C, 5 min; 1% agarose gel
[3] = molecular target: chimeric Taq 1-2 (Thermus aquaticus / environmental DNA chimera) (UniProt P19821); test: EMSA; settings: EMSA: 3 nM DNA, 20 mM Tris-HCl pH 8.8, 10 mM NaCl, 5 mM MgCl2, 14 mM 2-mercaptoethanol, 0.1 mg/ml BSA, 5% glycerol, 40 C, 5 min; 1% agarose gel
[4] = molecular target: chimeric Taq 8-1 (Thermus aquaticus / environmental DNA chimera) (UniProt P19821); test: EMSA; settings: EMSA: 3 nM DNA, 20 mM Tris-HCl pH 8.8, 10 mM NaCl, 5 mM MgCl2, 14 mM 2-mercaptoethanol, 0.1 mg/ml BSA, 5% glycerol, 40 C, 5 min; 1% agarose gel
[5] = molecular target: chimeric Taq 30-1 (Thermus aquaticus / environmental DNA chimera) (UniProt P19821); test: EMSA; settings: EMSA: 3 nM DNA, 20 mM Tris-HCl pH 8.8, 10 mM NaCl, 5 mM MgCl2, 14 mM 2-mercaptoethanol, 0.1 mg/ml BSA, 5% glycerol, 40 C, 5 min; 1% agarose gel
[6] = molecular target: chimeric Taq 4-2 (Thermus aquaticus / environmental DNA chimera) (UniProt P19821); test: EMSA; settings: EMSA: 3 nM DNA, 20 mM Tris-HCl pH 8.8, 10 mM NaCl, 5 mM MgCl2, 14 mM 2-mercaptoethanol, 0.1 mg/ml BSA, 5% glycerol, 40 C, 5 min; 1% agarose gel
[7] = molecular target: chimeric Taq 8-2 (Thermus aquaticus / environmental DNA chimera) (UniProt P19821); test: EMSA; settings: EMSA: 3 nM DNA, 20 mM Tris-HCl pH 8.8, 10 mM NaCl, 5 mM MgCl2, 14 mM 2-mercaptoethanol, 0.1 mg/ml BSA, 5% glycerol, 40 C, 5 min; 1% agarose gel
[8] = molecular target: chimeric Taq 4-1 (Thermus aquaticus / environmental DNA chimera) (UniProt P19821); test: EMSA; settings: EMSA: 3 nM DNA, 20 mM Tris-HCl pH 8.8, 10 mM NaCl, 5 mM MgCl2, 14 mM 2-mercaptoethanol, 0.1 mg/ml BSA, 5% glycerol, 40 C, 5 min; 1% agarose gel
[9] = molecular target: chimeric Taq 1-1 (Thermus aquaticus / environmental DNA chimera) (UniProt P19821); test: EMSA; settings: EMSA: 3 nM DNA, 20 mM Tris-HCl pH 8.8, 10 mM NaCl, 5 mM MgCl2, 14 mM 2-mercaptoethanol, 0.1 mg/ml BSA, 5% glycerol, 40 C, 5 min; 1% agarose gel
[10] = molecular target: chimeric Taq 10-1 (Thermus aquaticus / environmental DNA chimera) (UniProt P19821); test: EMSA; settings: EMSA: 3 nM DNA, 20 mM Tris-HCl pH 8.8, 10 mM NaCl, 5 mM MgCl2, 14 mM 2-mercaptoethanol, 0.1 mg/ml BSA, 5% glycerol, 40 C, 5 min; 1% agarose gel
[11] = molecular target: chimeric Taq 7-1 (Thermus aquaticus / environmental DNA chimera) (UniProt P19821); test: EMSA; settings: EMSA: 3 nM DNA, 20 mM Tris-HCl pH 8.8, 10 mM NaCl, 5 mM MgCl2, 14 mM 2-mercaptoethanol, 0.1 mg/ml BSA, 5% glycerol, 40 C, 5 min; 1% agarose gel
[12] = molecular target: chimeric Taq 29-1 (Thermus aquaticus / environmental DNA chimera) (UniProt P19821); test: EMSA; settings: EMSA: 3 nM DNA, 20 mM Tris-HCl pH 8.8, 10 mM NaCl, 5 mM MgCl2, 14 mM 2-mercaptoethanol, 0.1 mg/ml BSA, 5% glycerol, 40 C, 5 min; 1% agarose gel
[13] = molecular target: chimeric Taq 12-1 (Thermus aquaticus / environmental DNA chimera) (UniProt P19821); test: EMSA; settings: EMSA: 3 nM DNA, 20 mM Tris-HCl pH 8.8, 10 mM NaCl, 5 mM MgCl2, 14 mM 2-mercaptoethanol, 0.1 mg/ml BSA, 5% glycerol, 40 C, 5 min; 1% agarose gel
TaqHK = TaqHK (Thermus aquaticus, UniProt P19821 1-832, E742H;A743K); test: EMSA; 5 mM Mg2+; apparent Kd; EMSA: 3 nM DNA, 20 mM Tris-HCl pH 8.8, 10 mM NaCl, 5 mM MgCl2, 14 mM 2-mercaptoethanol, 0.1 mg/ml BSA, 5% glycerol, 40 C, 5 min; 1% agarose gel; settings: protein: recombinant; label: 32P on 27mer; primer-template; 27 bp duplex, 5' overhang 22 nt on the 49mer template
TaqQY = TaqQY (Thermus aquaticus, UniProt P19821 1-832, E742Q;A743Y); test: as above; settings: protein: recombinant; label: 32P on 27mer; primer-template; 27 bp duplex, 5' overhang 22 nt on the 49mer template
TaqHH = TaqHH (Thermus aquaticus, UniProt P19821 1-832, E742H;A743H); test: as above; settings: protein: recombinant; label: 32P on 27mer; primer-template; 27 bp duplex, 5' overhang 22 nt on the 49mer template
TaqHA = TaqHA (Thermus aquaticus, UniProt P19821 1-832, E742H); test: as above; settings: protein: recombinant; label: 32P on 27mer; primer-template; 27 bp duplex, 5' overhang 22 nt on the 49mer template
[14] = molecular target: Taq DNA polymerase WT (TaqEA) (Thermus aquaticus, UniProt P19821 1-832); test: as above; settings: protein: recombinant; label: 32P on 27mer; primer-template; 27 bp duplex, 5' overhang 22 nt on the 49mer template
TaqKR = TaqKR (Thermus aquaticus, UniProt P19821 1-832, E742K;A743R); test: as above; settings: protein: recombinant; label: 32P on 27mer; primer-template; 27 bp duplex, 5' overhang 22 nt on the 49mer template
TaqAA = TaqAA (Thermus aquaticus, UniProt P19821 1-832, E742A); test: as above; settings: protein: recombinant; label: 32P on 27mer; primer-template; 27 bp duplex, 5' overhang 22 nt on the 49mer template
TaqAR = TaqAR (Thermus aquaticus, UniProt P19821 1-832, E742A;A743R); test: as above; settings: protein: recombinant; label: 32P on 27mer; primer-template; 27 bp duplex, 5' overhang 22 nt on the 49mer template
TaqRK = TaqRK (Thermus aquaticus, UniProt P19821 1-832, E742R;A743K); test: as above; settings: protein: recombinant; label: 32P on 27mer; primer-template; 27 bp duplex, 5' overhang 22 nt on the 49mer template
TaqRR = TaqRR (Thermus aquaticus, UniProt P19821 1-832, E742R;A743R); test: as above; settings: protein: recombinant; label: 32P on 27mer; primer-template; 27 bp duplex, 5' overhang 22 nt on the 49mer template
TaqER = TaqER (Thermus aquaticus, UniProt P19821 1-832, A743R); test: as above; settings: protein: recombinant; label: 32P on 27mer; primer-template; 27 bp duplex, 5' overhang 22 nt on the 49mer template
TaqKK = TaqKK (Thermus aquaticus, UniProt P19821 1-832, E742K;A743K); test: as above; settings: protein: recombinant; label: 32P on 27mer; primer-template; 27 bp duplex, 5' overhang 22 nt on the 49mer template
TaqRA = TaqRA (Thermus aquaticus, UniProt P19821 1-832, E742R); test: as above; settings: protein: recombinant; label: 32P on 27mer; primer-template; 27 bp duplex, 5' overhang 22 nt on the 49mer template
TaqAH = TaqAH (Thermus aquaticus, UniProt P19821 1-832, E742A;A743H); test: as above; settings: protein: recombinant; label: 32P on 27mer; primer-template; 27 bp duplex, 5' overhang 22 nt on the 49mer template
TaqEH = TaqEH (Thermus aquaticus, UniProt P19821 1-832, A743H); test: as above; settings: protein: recombinant; label: 32P on 27mer; primer-template; 27 bp duplex, 5' overhang 22 nt on the 49mer template
TaqEH, sequence (P19821 whole entry A743H): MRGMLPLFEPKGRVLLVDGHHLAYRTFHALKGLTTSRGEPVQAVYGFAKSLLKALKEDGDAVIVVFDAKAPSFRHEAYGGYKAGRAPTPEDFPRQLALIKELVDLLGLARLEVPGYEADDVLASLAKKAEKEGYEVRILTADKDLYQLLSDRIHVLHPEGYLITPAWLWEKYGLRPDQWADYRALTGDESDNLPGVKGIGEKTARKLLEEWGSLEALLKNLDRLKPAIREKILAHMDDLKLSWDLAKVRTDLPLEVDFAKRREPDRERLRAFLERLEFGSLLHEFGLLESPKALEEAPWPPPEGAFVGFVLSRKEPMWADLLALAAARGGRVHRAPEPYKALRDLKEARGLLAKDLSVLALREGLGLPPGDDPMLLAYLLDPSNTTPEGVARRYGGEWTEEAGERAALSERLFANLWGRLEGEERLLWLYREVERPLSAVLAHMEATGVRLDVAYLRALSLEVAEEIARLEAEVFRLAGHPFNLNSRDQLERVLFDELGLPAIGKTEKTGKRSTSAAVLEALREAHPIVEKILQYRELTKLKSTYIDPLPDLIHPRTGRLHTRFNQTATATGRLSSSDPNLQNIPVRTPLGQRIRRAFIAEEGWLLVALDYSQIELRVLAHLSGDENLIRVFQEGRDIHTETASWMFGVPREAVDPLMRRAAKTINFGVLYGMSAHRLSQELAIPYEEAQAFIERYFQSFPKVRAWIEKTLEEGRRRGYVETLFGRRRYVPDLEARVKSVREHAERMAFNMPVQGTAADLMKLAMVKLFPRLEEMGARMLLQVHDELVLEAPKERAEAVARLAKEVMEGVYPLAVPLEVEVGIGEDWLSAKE

TaqER, sequence (P19821 whole entry A743R): as the sequence (P19821 whole entry A743H) above, with H743R counted along it
TaqHH, sequence (P19821 whole entry E742H/A743H): as the sequence (P19821 whole entry A743H) above, with E742H counted along it
TaqKK, sequence (P19821 whole entry E742K/A743K): as the sequence (P19821 whole entry A743H) above, with E742K, H743K counted along it
TaqHK, sequence (P19821 whole entry E742H/A743K): as the sequence (P19821 whole entry A743H) above, with E742H, H743K counted along it
chimeric Taq 12-1 (Thermus aquaticus / environmental DNA chimera), sequence (P19821 whole entry, stated change not applied): as the sequence (P19821 whole entry A743H) above, with H743A counted along it
chimeric Taq 7-3 (Thermus aquaticus / environmental DNA chimera), sequence (P19821 whole entry, change not shown): as the sequence (P19821 whole entry A743H) above, with H743A counted along it
Taq DNA polymerase WT (TaqEA), sequence (P19821 whole entry): as the sequence (P19821 whole entry A743H) above, with H743A counted along it
chimeric Taq 30-1 (Thermus aquaticus / environmental DNA chimera), sequence (P19821 whole entry, change not shown): as the sequence (P19821 whole entry A743H) above, with H743A counted along it
chimeric Taq 1-1 (Thermus aquaticus / environmental DNA chimera), sequence (P19821 whole entry, change not shown): as the sequence (P19821 whole entry A743H) above, with H743A counted along it
chimeric Taq 8-1 (Thermus aquaticus / environmental DNA chimera), sequence (P19821 whole entry, change not shown): as the sequence (P19821 whole entry A743H) above, with H743A counted along it
chimeric Taq 7-1 (Thermus aquaticus / environmental DNA chimera), sequence (P19821 whole entry, change not shown): as the sequence (P19821 whole entry A743H) above, with H743A counted along it
chimeric Taq 10-1 (Thermus aquaticus / environmental DNA chimera), sequence (P19821 whole entry, change not shown): as the sequence (P19821 whole entry A743H) above, with H743A counted along it
chimeric Taq 7-2 (Thermus aquaticus / environmental DNA chimera), sequence (P19821 whole entry, change not shown): as the sequence (P19821 whole entry A743H) above, with H743A counted along it
chimeric Taq 4-1 (Thermus aquaticus / environmental DNA chimera), sequence (P19821 whole entry, change not shown): as the sequence (P19821 whole entry A743H) above, with H743A counted along it
chimeric Taq 29-1 (Thermus aquaticus / environmental DNA chimera), sequence (P19821 whole entry, change not shown): as the sequence (P19821 whole entry A743H) above, with H743A counted along it
chimeric Taq 8-2 (Thermus aquaticus / environmental DNA chimera), sequence (P19821 whole entry, change not shown): as the sequence (P19821 whole entry A743H) above, with H743A counted along it
chimeric Taq 1-2 (Thermus aquaticus / environmental DNA chimera), sequence (P19821 whole entry, change not shown): as the sequence (P19821 whole entry A743H) above, with H743A counted along it
chimeric Taq 4-2 (Thermus aquaticus / environmental DNA chimera), sequence (P19821 whole entry, change not shown): as the sequence (P19821 whole entry A743H) above, with H743A counted along it
TaqRR, sequence (P19821 whole entry E742R/A743R): as the sequence (P19821 whole entry A743H) above, with E742R, H743R counted along it
TaqQY, sequence (P19821 whole entry E742Q/A743Y): as the sequence (P19821 whole entry A743H) above, with E742Q, H743Y counted along it
TaqRA, sequence (P19821 whole entry E742R): as the sequence (P19821 whole entry A743H) above, with E742R, H743A counted along it
TaqRK, sequence (P19821 whole entry E742R/A743K): as the sequence (P19821 whole entry A743H) above, with E742R, H743K counted along it
TaqHA, sequence (P19821 whole entry E742H): as the sequence (P19821 whole entry A743H) above, with E742H, H743A counted along it
TaqAA, sequence (P19821 whole entry E742A): as the sequence (P19821 whole entry A743H) above, with E742A, H743A counted along it
TaqAH, sequence (P19821 whole entry E742A/A743H): as the sequence (P19821 whole entry A743H) above, with E742A counted along it
TaqAR, sequence (P19821 whole entry E742A/A743R): as the sequence (P19821 whole entry A743H) above, with E742A, H743R counted along it
TaqKR, sequence (P19821 whole entry E742K/A743R): as the sequence (P19821 whole entry A743H) above, with E742K, H743R counted along it

**Q.** For “AGCTATGACCATGATTACGAATTGCTT / AGCTACCATGCCTGCACGAATTAAGCAATTCGTAATCATGGTCATAGCT [primed DNA (27mer/49mer)]”, which Kd [1] is on record?
**A.** 5 nM

**Q.** And the Kd [2]?
**A.** 4 nM

**Q.** What about the Kd [3] of the same molecule?
**A.** 5 nM

**Q.** And the Kd [4]?
**A.** 10 nM

**Q.** What about the Kd [5] of the same molecule?
**A.** 8 nM

**Q.** What about the Kd [6] of the same molecule?
**A.** 4 nM

**Q.** And the Kd [7]?
**A.** 20 nM

**Q.** And the Kd [8]?
**A.** 4 nM

**Q.** And the Kd [9]?
**A.** 6 nM

**Q.** And the Kd [10]?
**A.** 4 nM

**Q.** What about the Kd [11] of the same molecule?
**A.** 10 nM

**Q.** What about the Kd [12] of the same molecule?
**A.** 10 nM

**Q.** What about the Kd [13] of the same molecule?
**A.** 7 nM

B1: primed DNA (27mer/49mer) (dsDNA)
DNA 1: AGCTATGACCATGATTACGAATTGCTT
DNA 2: AGCTACCATGCCTGCACGAATTAAGCAATTCGTAATCATGGTCATAGCT
**Q.** Which Kd (TaqHK) does the source give for B1 here?
**A.** 6 nM

**Q.** And the Kd (TaqQY)?
**A.** 10 nM

**Q.** What about the Kd (TaqHH) of the same molecule?
**A.** 6 nM

**Q.** And the Kd (TaqHA)?
**A.** 6 nM

**Q.** And the Kd [14]?
**A.** 400 nM

**Q.** What about the Kd (TaqKR) of the same molecule?
**A.** 10 nM

**Q.** What about the Kd (TaqAA) of the same molecule?
**A.** 9 nM

**Q.** And the Kd (TaqAR)?
**A.** 8 nM

**Q.** And the Kd (TaqRK)?
**A.** 10 nM

**Q.** What about the Kd (TaqRR) of the same molecule?
**A.** 9 nM

**Q.** And the Kd (TaqER)?
**A.** 8 nM

**Q.** What about the Kd (TaqKK) of the same molecule?
**A.** 10 nM

**Q.** What about the Kd (TaqRA) of the same molecule?
**A.** 8 nM

**Q.** What about the Kd (TaqAH) of the same molecule?
**A.** 6 nM

**Q.** What about the Kd (TaqEH) of the same molecule?
**A.** 6 nM
